B1: Pistol ribozyme (parent)
chain: GGGUCGUUGUUCCAUAAUCGCGUGGAUAUGGCACGCAAGUUUCUACCGGGCACCGUAAAUGUCCGACUGGAGCCGUUCGGGCGGCUAUAAACAGACCUCAGGCCCGAAGCGUGGCGGCACCUGCCGCCGGUGGUAAAAAAGAUCGGAAGAGCACACGUCU

In the data set the parent is B1. Briefly: aptazyme ON/OFF ratio, guanine; higher = stronger switching; co-transcriptional cleavage with and without guanine.
On to U7C U8C G9U C13U, for which the “aptazyme ON/OFF ratio” value came to 1.23.

As to U7C U8C G9U C13A, the “aptazyme ON/OFF ratio” value was determined as 1.02. For U7C U8C G9C U11A C12G C13U the value was 1.03; for U7C U8C G9C U11A C12G C13A, 1.07; for U7C U8C G9C U11A C12G C13G, 1.07. Consider U7C U8C G9U U10A U11C C13G, for which the “aptazyme ON/OFF ratio” value was found to be 1.07. With U7C U8C G9U U10A U11C C13U, the “aptazyme ON/OFF ratio” value is 1.1.

For the variant U7C U8C G9U U10A U11C C13A, the “aptazyme ON/OFF ratio” value was 1.15.

With U7C U8C G9C U10A C12G C13G, the “aptazyme ON/OFF ratio” value turned out to be 1.17. As for U7C U8C G9C U10A C12G C13A, the “aptazyme ON/OFF ratio” value is 1.11. Consider U7C U8C G9C U10A C12G C13U, for which the “aptazyme ON/OFF ratio” value was determined as 1.1. On to U7C U8C G9C U10A U11C C12G C13A, for which the “aptazyme ON/OFF ratio” value is 1.21. Regarding U7C U8C G9C U10A U11C C12G C13U, the “aptazyme ON/OFF ratio” value was 1.2. For U7C U8C G9C U10A U11C C12G C13G the value was 1.15; for U7C U8C G9U U10A U11C C12A C13G, 1.15; for U7C U8C G9U U10A U11C C12A C13U, 1.18. For U7C U8C G9U U10A U11C C12A C13A the value was 1.17; for U7C U8C G9C U10C U11A C12A C13A, 1.07.

For U7C U8C G9C U10C U11A C12A C13U, the “aptazyme ON/OFF ratio” value was found to be 1.1. U7C U8C G9C U10C U11A C12A C13G: the “aptazyme ON/OFF ratio” value was found to be 1.06.

U7C U8C G9C U10G U11A C13A: the “aptazyme ON/OFF ratio” value stood at 1.14. As for U7C U8C G9C U10G U11A C13U, the figure is 1.09.

As for U7C U8C G9C U10G U11A C13G, the “aptazyme ON/OFF ratio” value was found to be 1.08.

Consider U7C U8C G9C U10C U11C C12U, for which the “aptazyme ON/OFF ratio” value turned out to be 1.06.

Consider U7C U8C G9C U10C U11C C12A, for which the “aptazyme ON/OFF ratio” value was 1.04. For U7C U8C G9C U10C U11C C12G the value was 1.13; for U7C U8C G9U C12U C13A, 1.06; for U7C U8C G9U C12U C13G, 1.02.

Turning to U7C U8C G9U C12U C13U, the “aptazyme ON/OFF ratio” value is 1.3. As for U7C U8C G9C U10G C13G, the figure is 1.1; as for U7C U8C G9C U10G C13A, 1.13. U7C U8C G9C U10G C13U: the “aptazyme ON/OFF ratio” value is 1.17.

For the variant U7C U8C G9U U10A U11C C12A, the “aptazyme ON/OFF ratio” value is 1.19. Take U7C U8C G9U U10A U11C C12U: the “aptazyme ON/OFF ratio” value stood at 1.19.

On to U7C U8C G9U U10A U11C C12G, for which the “aptazyme ON/OFF ratio” value amounted to 1.36.

On to U7C U8C G9C U10C C13G, for which the “aptazyme ON/OFF ratio” value came to 1.12. For U7C U8C G9C U10C C13A the value was 1.04; for U7C U8C G9C U10C C13U, 2.85; for U7C U8C G9C U11G C12U, 1.12. With U7C U8C G9C U11G C12G, the “aptazyme ON/OFF ratio” value is 1.11.

In the case of U7C U8C G9C U11G C12A, the “aptazyme ON/OFF ratio” value was found to be 1.22.

With U7C U8C G9U U10A U11C, the “aptazyme ON/OFF ratio” value was found to be 1.16.

Consider U7C U8C G9U U10A U11G, for which the “aptazyme ON/OFF ratio” value amounted to 1.34. For U7C U8C G9U U10A U11A the value was 2.27; for U7C U8C G9C U10G U11G C13A, 1.06. Turning to U7C U8C G9C U10G U11G C13G, the “aptazyme ON/OFF ratio” value stood at 1.08. For U7C U8C G9C U10G U11G C13U the value was 1.1; for U7C U8C G9C U10C U11A C12G C13U, 1.05.

With U7C U8C G9C U10C U11A C12G C13G, the “aptazyme ON/OFF ratio” value is 1.13. Regarding U7C U8C G9C U10C U11A C12G C13A, the “aptazyme ON/OFF ratio” value is 1.11. As for U7C U8C G9U U10A C12A C13A, the figure is 1.2; as for U7C U8C G9U U10A C12A C13U, 1.2. As for U7C U8C G9U U10A C12A C13G, the figure is 1.07; as for U7C U8C G9C U10G C12U, 1.2. As for U7C U8C G9C U10G C12A, the “aptazyme ON/OFF ratio” value was 1.1. For the variant U7C U8C G9C U10G C12G, the “aptazyme ON/OFF ratio” value was determined as 1.1. For the variant U7C U8C G9U U10A C12U C13U, the “aptazyme ON/OFF ratio” value came to 1.19. Turning to U7C U8C G9U U10A C12U C13G, the “aptazyme ON/OFF ratio” value amounted to 1.14.

For the variant U7C U8C G9U U10A C12U C13A, the “aptazyme ON/OFF ratio” value is 1.07. Regarding U7C U8C G9C U10C U11C C12U C13G, the “aptazyme ON/OFF ratio” value is 1.08.

With U7C U8C G9C U10C U11C C12U C13A, the “aptazyme ON/OFF ratio” value turned out to be 1.08. For U7C U8C G9C U10C U11C C12U C13U the value was 1.03; for U7C U8C G9C U10C C12U C13G, 1.14. In the case of U7C U8C G9C U10C C12U C13U, the “aptazyme ON/OFF ratio” value amounted to 1.09.

Regarding U7C U8C G9C U10C C12U C13A, the “aptazyme ON/OFF ratio” value is 1.1. As to U7C U8C G9C U11G C12G C13G, the “aptazyme ON/OFF ratio” value was found to be 1.11. For U7C U8C G9C U11G C12G C13A the value was 1.1; for U7C U8C G9C U11G C12G C13U, 1.1; for U7C U8C G9C U10G, 1.61. For U7C U8C G9C U10C the value was 3.53; for U7C U8C G9C U10A U11G C12A C13U, 1.14. U7C U8C G9C U10A U11G C12A C13A: the “aptazyme ON/OFF ratio” value was 1.07. For U7C U8C G9C U10A U11G C12A C13G the value was 1.12. As for U7C U8C G9U U10A U11A C12U C13U, the figure is 1.18. As for U7C U8C G9U U10A U11A C12U C13A, the figure is 1.09. As for U7C U8C G9U U10A U11A C12U C13G, the “aptazyme ON/OFF ratio” value was determined as 1.14.

In the case of U7C U8C G9C U10A C12U, the “aptazyme ON/OFF ratio” value was determined as 1.26.

As to U7C U8C G9C U10A C12G, the “aptazyme ON/OFF ratio” value came out at 1.16. As for U7C U8C G9C U10C U11C C13G, the figure is 1.12. As for U7C U8C G9C U10C U11C C13U, the figure is 0.989. As for U7C U8C G9C U10C U11C C13A, the “aptazyme ON/OFF ratio” value stood at 1.06. Consider U7C U8C G9C U10A C12U C13G, for which the “aptazyme ON/OFF ratio” value worked out at 1.13.

Regarding U7C U8C G9C U10A C12U C13U, the “aptazyme ON/OFF ratio” value stood at 1.11.

For the origin of these results see the RNAGym collection of RNA variant scans (doi:10.1021/acssynbio.7b00057).
